Where “and” joins values, the source holds several entries; their conditions need not be identical. Identical values can stand only once. Entries after “also recorded” stand apart in the source; their conditions may differ.
How the values were obtained:
[1] = tested on: primary neonatal rat ventricular cardiomyocytes; assay: Cardiomyocyte proliferation by cell count (hemocytometer); format: cell-based
Experimental: To determine cardiomyocyte proliferation, primary neonatal rat ventricular cardiomyocytes were quantified by counting with a hemocytometer after 3 days and 6 days of stimulation. To determine cardiomyocyte survival, primary neonatal rat ventricular cardiomyocytes were pre-treated with 500 ng/mL periostin or buffer for 30 min and then exposed to 0.5 μM doxycycline or 100 ng/mL TNFα for 24 hr and quantified by counting. Corresponding samples were stained with an antibody directed against tropomyosin as a cardiomyocyte marker to control for the percentage of differentiated cardiomyocytes. Apoptotic cardiomyocyte nuclei were determined after 24 hr with the In situ Cell Death Detection Kit (Roche, Indianapolis, Ind.) in combination with staining for troponin I.

[2] = tested on: atrial natriuretic factor (ANF); assay: Transcription of atrial natriuretic factor by RT-PCR in neonatal cardiomyocytes; format: cell-based, rat; settings: 72 hr stimulation
Experimental: RNA was prepared using Trizol reagent (Invitrogen) from neonatal rat ventricular cardiomyocytes after 72 hr of stimulation. Complementary DNA was synthesized from 2 μg RNA with the SuperScriptIII kit (Invitrogen) using oligo-dT primers. One μL cDNA was used as template for 20 μL PCR-reactions (95° C. for 2 min, 30 cycles of 95° C. for 2 min, 55° C. for 2 min, 72° C. for 5 min, followed by 72° C. for 10 min). Oligonucleotide primers used for detection of ANF were F: 5′-[…]-3′ (Seq ID No. 2), R: 5′-[…]-3′ (Seq ID No. 3), β-actin were F: 5′-[…]-3′ (Seq ID No. 4), R: 5′-[…]-3′ (Seq ID No. 5), […] were F: 5′-[…]-3′ (Seq ID No. 6), R: 5′-[…]-3′ (Seq ID No. 7); SMA were F: 5′-[…]-3′ (Seq ID No. 8), R: 5′-[…]-3′ (Seq ID No. 9); SERCA2 were F: 5′-[…]-3′ (Seq ID No. 10), R: 5′-[…]-3′ (Seq ID No. 11), and for GAPDH: 5′-[…]-3′ (Seq ID No. 12), R: 5′-[…]-3′ (Seq ID No. 13).

[3] = tested on: adult ventricular cardiomyocytes; assay: Transcription of fetal gene program (RT-PCR) in adult ventricular cardiomyocytes; format: cell-based, rat
[4] = tested on: Adult male Sprague-Dawley rats; assay: Rat model of myocardial infarction: analysis of myocardial regeneration (histology, immunofluorescence); format: in vivo
Experimental: Horizontal cryosections of 14 μm thickness spaced at 1 mm intervals were analyzed. To determine infarct size, Masson's Trichrome-stained sections were analyzed at 1× magnification. The infarct border zone was defined as myocardial tissue within 0.5 mm of the fibrous scar tissue. Fibrosis and cardiomyocyte cross-sectional area were determined after staining with Masson's Trichrome at 10× and 40× magnification, respectively, and quantified using the Metamorph software package. BrdU-positive cardiac fibroblast nuclei were determined at 5 cross-sections per heart at the level of the myocardial infarction. Cardiomyocyte nuclei were counted using the optical dissector method (Howard, C. V. & Reed, M. Unbiased Stereology: Three-Dimensional Measurement In Microscopy, (BIOS Scientific Publishers, Oxford, 2005)) on troponin T and DAPI-stained sections in 32-60 random sample volumes of […] per heart. BrdU-positive cardiomyocyte nuclei were quantified on 16-20 sections per heart. […] Adult male Sprague-Dawley rats (300 gm, Charles River Laboratories) underwent experimental myocardial infarction as described (del Monte, F. et al. Abrogation of ventricular arrhythmias in a model of ischemia and reperfusion by targeting myocardial calcium cycling. Proc Natl Acad Sci USA 101, 5622-7 (2004)). The survival rate was 67%. Gelfoam loaded with 100 μg of recombinant periostin or with buffer were applied over the myocardial infarction at the time of surgery. […] Echocardiography and hemodynamic catheterization were performed as described (Prunier, F. et al. Am J Physiol Heart Circ Physiol (2006)). Horizontal cryosections of 14 μm thickness spaced at 1 mm intervals were analyzed. Masson's Trichrome-stained sections were analyzed at 10× magnification to determine infarct size (Pasumarthi, K. B., et al. Circ Res 96, 110-8 (2005)), defined as [coronal infarct perimeter (epicardial+endocardial)/total coronal perimeter (epicardial+endocardial)]×100 and thinning index (Engel, F. B., et al. Proc Natl Acad Sci USA 103, 15546-51 (2006)), defined as minimal infarct wall thickness/maximal septal wall thickness. The infarct border zone was defined as myocardial tissue within 0.5 mm of the fibrous scar tissue. Fibrosis was determined on 10× images of Masson's Trichrome stainings and quantified using the Metamorph software package (Molecular Devices Corp.). Cardiomyocyte cross-sectional area was determined after staining with Masson's Trichrome at 40× magnification and quantified using the Metamorph software package. BrdU-positive cardiac fibroblast nuclei were determined at 5 cross-sections per heart at the level of the myocardial infarction. Cardiomyocyte nuclei were counted on troponin T and DAPI-stained sections in 32-60 random sample volumes of 84,500 μm^3 per heart. BrdU-positive cardiomyocyte nuclei were quantified on 16-20 sections per heart. Capillaries and stem cells were detected with antibodies against von Willebrand factor (vWF) and c-kit, respectively, and quantified at 5 cross-sections per heart at the level of the myocardial infarction.

[5] = tested on: Adult male Sprague-Dawley rats; assay: Cardiomyocyte cell cycle activity in vivo after intramyocardial injection; design: species or system rat; settings: dispersed isolated cardiomyocytes
[6] = 1 week, infarct and border zone

B1: periostin: Recombinant periostin, purified from HEK293 cells expressing the full-length human cDNA; secreted protein of 834 amino acids (Seq ID. No. 1) (protein, listed as Homo sapiens)
chain: MIPFLPMFSLLLLLIVNPINANNHYDKILAHSRIRGRDQGPNVCALQQILGTKKKYFSTCKNWYKKSICGQKTTVLYECCPGYMRMEGMKGCPAVLPIDHVYGTLGIVGATTTQRYSDASKLREEIEGKGSFTYFAPSNEAWDNLDSDIRRGLESNVNVELLNALHSHMINKRMLTKDLKNGMIIPSMYNNLGLFINHYPNGVVTVNCARIIHGNQIATNGVVHVIDRVLTQIGTSIQDFIEAEDDLSSFRAAAITSDILEALGRDGHFTLFAPTNEAFEKLPRGVLERFMGDKVASEALMKYHILNTLQCSESIMGGAVFETLEGNTIEIGCDGDSITVNGIKMVNKKDIVTNNGVIHLIDQVLIPDSAKQVIELAGKQQTTFTDLVAQLGLASALRPDGEYTLLAPVNNAFSDDTLSMVQRLLKLILQNHILKVKVGLNELYNGQILETIGGKQLRVFVYRTAVCIENSCMEKGSKQGRNGAIHIFREIIKPAEKSLHEKLKQDKRFSTFLSLLEAADLKELLTQPGDWTLFVPTNDAFKGMTSEEKEILIRDKNALQNIILYHLTPGVFIGKGFEPGVTNILKTTQGSKIFLKEVNDTLLVNELKSKESDIMTTNGVIHVVDKLLYPADTPVGNDQLLEILNKLIKYIQIKFVRGSTFKEIPVTVYTTKIITKVVEPKIKVIEGSLQPIIKTEGPTLTKVKIEGEPEFRLIKEGETITEVIHGEPIIKKYTKIIDGVPVEITEKETREERIITGPEIKYTRISTGGGETEETLKKLLQEEVTKVTKFIEGGDGHLFEDEEIKRLLQGDTPVRKLQANKKVQGSRRRLREGRSQ
increase of cardiomyocyte proliferation ([1]; after 3 days): 3.6 fold | increase of cardiomyocyte proliferation ([1]; after 6 days): 4.2 fold | transcription of atrial natriuretic factor (ANF) [2]: did not induce | transcription of SERCA2 [3]: slightly increased | transcription of β-MHC, SMA and ANF [3]: not increased | number of c-kit-positive cells in infarct and border zone vs control ([4]; 1 and 12 weeks): did not differ | mitosis (H3P), of cardiomyocyte nuclei ([4]; 1 week): 0.1±0.01% | infarct size vs control ([4]; 1 week after MI): same infarct size | number of BrdU-positive cardiac fibroblasts ([4]; 1 week after MI): decreased | number of cardiomyocyte nuclei vs control ([4]; 1 week after MI): same number of nuclei | proportion of cycling cardiomyocytes vs proportion of apoptotic cardiomyocytes ([4]; 1 week after MI): five-fold higher | arteriolar density vs control [4, 6]: did not differ | capillary density vs control [4, 6]: did not differ | mitosis (H3P), of cardiomyocyte nuclei ([4]; 12 weeks): 0.2±0.5% | fibrotic tissue ([4]; 12 weeks after MI): significantly decreased | heart weight vs buffer-treated rats ([4]; 12 weeks after MI): similar | increase in arteriolar density compared with control hearts ([4]; 12 weeks after MI): 1.5 fold | increase in capillary density compared with control hearts ([4]; 12 weeks after MI): 4 fold | infarct size smaller compared with control hearts ([4]; 12 weeks after MI): 50% | left ventricular free wall thickness vs control ([4]; 12 weeks after MI): thicker | more cardiomyocyte nuclei than control hearts ([4]; 12 weeks after MI): 6.2×10^6 | proportion of cycling cardiomyocytes vs proportion of apoptotic cardiomyocytes ([4]; 12 weeks after MI): 100 fold | scar volume vs control ([4]; 12 weeks after MI): smaller scar volume | septum thickness vs control ([4]; 12 weeks after MI): thinner | thinning index ([4]; 12 weeks after MI): improved thinning index | increased capillary density compared with control animals ([4]; FIG. 11A, time not given, legend b80: one week): 4 fold | number of stem cells (c-kit) vs buffer treated hearts ([4]; FIG. 11B): similar | calculated new cardiomyocyte nuclei from BrdU rate ([4]; after 12 weeks): 7.2×10^6 per heart | cross-sectional cardiomyocyte area vs control ([4]; after MI): smaller | increase of DNA synthesis compared with buffer-treated animals ([4]; after MI): 10 fold | left ventricular cardiomyocyte nuclei ([4]; after MI (FIG. 9i)): 18.8 million | cardiomyocyte apoptosis vs control ([4]; after MI, 1 and 12 weeks): without changing the rate of apoptosis; also recorded: without affecting apoptosis; also recorded: similar | DNA synthesis, cardiomyocytes per heart ([4]; after MI, 3 BrdU injections): 5,268±402 per heart | BrdU uptake, of cardiomyocytes ([4]; infarct and border zone, 1 week): 0.6±0.07% | BrdU uptake, of cardiomyocytes ([4]; infarct and border zone, 12 weeks): 1±0.3% | calculated cardiomyocyte nuclei generated from rate of mitosis ([4]; over 12 weeks): 5.5×10^6 | cardiomyocyte mitoses (metaphase chromosomes) ([4]; periostin-treated hearts, n=6): 4,737±770 | cell-cycle reentry, of all cardiomyocytes in the infarct border zone ([4]; rat, in vivo): 0.6-1% | rate of cardiomyocytes entering the cell cycle ([4]; rat, in vivo): 3,727 per hour | cell-cycle reentry of differentiated cardiomyocytes ([4]; single injection of BrdU, labeling for 6.4 h, n=3): 23,852±1,709 per heart | BrdU-labeled cardiomyocytes / cell cycle re-entry in the infarct border zone ([4]; three injections of BrdU): 1.4% and 1.4±0.5% | H3P-positive mononucleated cardiomyocytes [5]: 2±0.2%
